Like-named read-outs stand apart in the source and are kept apart here.
What was measured:
[1] = target: T1, biotin labeled soluble human SIRPα v1 ECD recombinant protein (human, UniProt P78324 31-373, biotin labeled); assay: competitive ELISA; competitor 050
T1 construct: extracellular domain
Protocol: Competitive ELISA assay was used for epitope binning of 9 functional antibodies. Briefly excessive competitor antibody and biotin labeled soluble human SIRPα v1 ECD recombinant protein were co-incubated with ELISA microplate coated antibody. After washing, HRP-SA was added and incubated at 37° C. for 1 hour. Then, […] of TMB solution (Biotechnology) was added. After incubation for 15 minutes at room temperature, the reaction was stopped by the addition of […] of 1N HCl. OD 450 nm was read. Competition ratio was calculated. The antibodies that can compete each other for binding to SIRPα have the similar binding epitope.

[2] = target: T1, biotin labeled soluble human SIRPα v1 …; assay: competitive ELISA, biotin-SIRPα v1 ECD to coated CD47 ECD
Protocol: Competitive ELISA assay was used to determine whether the purified hybridoma antibodies can block CD47 and SIRPα interaction or CD47 and SIRPγ interaction. Briefly, for CD47 and SIRPα interaction blocking activity detection, antibody and biotin labeled soluble human SIRPα v1 ECD recombinant protein were co-incubated with ELISA microplate coated human CD47 ECD recombinant protein.
(§1) For CD47 and SIRPγ interaction blocking activity detection, antibody and biotin labeled soluble human CD47 ECD recombinant protein were co-incubated with ELISA microplate coated human SIRPγ ECD recombinant protein. After washing, horseradish peroxidase labeled streptavidin (HRP-SA, Sigma) was added and incubated at 37° C. for 1 hour. Then, 100 μl/well of TMB solution (Biotechnology) was added. After incubation for 15 minutes at room temperature, the reaction was stopped by the addition of 50 μl of 1N HCl. OD 450 nm was read. Blocking ratio and IC₅₀ was calculated. In comparison with other known anti-SIRPα antibodies, 022, 050, 055, and 074 cannot block CD47 and SIRPα interaction. In particular, all of the antibodies of the invention cannot block CD47 and SIRPγ interaction.

[3] = target: T2, Fc tagged human SIRPγ ECD recombinant protein (human, UniProt Q9P1W8 29-360); assay: ELISA
T2 construct: range 1-360; cloned range includes the signal peptide; also called hSIRPγ; not shown: human IgG Fc region (hFc) of the pCPC vector
Method in brief: (§2)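 Coated antigen + antibody, 37° C. 1 h; wash; HRP anti-mouse or anti-human IgG, 37° C. 1 h; TMB 15 min RT; stop 1N HCl; OD450; EC₅₀.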

[4] = target: T2, Fc tagged human SIRPγ ECD recombinant …; assay: ELISA; remark: listed apart in the source
Method in brief: as §2

[5] = target: T2, Fc tagged human SIRPγ ECD recombinant …; assay: competitive ELISA, biotin-CD47 ECD to coated SIRPγ ECD
Protocol: as §1

[6] = target: T2, Fc tagged human SIRPγ ECD recombinant …; assay: ELISA; remark: listed apart in the source
Method in brief: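 OD 450 nm readings gave EC₅₀ values after a TMB reaction of 15 min at room temperature, stopped with 1N HCl. Before that, antibodies were bound to antigen-coated wells for 1 h at 37° C. An HRP-labelled anti-mouse or anti-human IgG secondary was then applied for a further 1 h at 37° C.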

Binder	% Competition [1]	IC50 [2]	EC50 [3]	EC50 [4]	IC50 [5]	EC50 [6]
Antibody 001 (hybridoma antibody) (antibody, V domains shown, mouse hybridoma antibody) VH: EVKLEESGGGLVQPGGSMKLSCVASGFTFRNYWMNWVRQSPERGLEWIAEISLKSNTYATHYAESVKGRFAISRDGSKSSFYLQMNDLRAEDTGIYYCTTFTKVVADWHLDVWGAGTTVTVSS VL: DVLMTQTPLSLPVSLGDQASISCRSSQNIVHSNGNTYLEWYLQKPGQSPKLLIYKVSNRFSGVPDRFSGSGSGTDFTLRISRVEAEDLGVYYCFQGSHVPFTFGSGTKLEIK	5%	1.4 nM				
Antibody 002 (hybridoma antibody) (antibody, V domains shown, mouse hybridoma antibody) VH: EVKLEESGGGLVQPGGSMILSCVASGFTFRNYWMNWVRQSPERGLEWIAEITLKSNTYATHYAESVKGRFAISRDDSKSSFYLQMNDLRPEDTGIYYCTTFTKVVADWHLDVWGAGTTVTVSS VL: DVLMTQTPLSLPVSLGDQASISCRSSQNIVHSNGNTYLEWYLQKPGQSPKLLIYKISNRFSGVPDRFSGSGSGTDFTLRISRVEAEDLGVYYCFQGSHVPFTFGSGTKLEIQ	-13%	1.3 nM				
Antibody 032 (hybridoma antibody) (antibody, V domains shown, mouse hybridoma antibody) VH: EVRLEESGGGLVQPGGSMKLSCVVSGFTFRNYWMNWVRQSPERGLEWIAEITLKSNTYATHYAESVKGRFAISRDDSKSSFYLQMNDLRPEDTGIYYCTTFTKVVADWHLDVWGAGTTVTVSS VL: DVLMTQTPLSLPVNLGDQASISCRSSQNIVHSNGNTYLEWYLQKPGQSPKLLIYKVSNRFSGVPDRFSGSGSGTDFTLRISRVEAEDLGVYYCFQGSHVPFTFGSGTKLEIK	4%	0.2 nM				
chimeric antibody 050c (antibody, V domains shown) VH: QIQLVQSGPELKKPGETVKISCKASGYTFTHYSMHWVKQAPGKGLKWMGWINTETAEPTYVDDFKGRFAFSLEASASTAFFQINNLKNEDTATYFCARGGLRQGDYWGQGTTLTVSS VL: QIVLTQSPPIMSASPGEKVTLTCSATSSVSASYLYWFQQKPGSSPKLWIYSTSNLASGVPARFSGSGSGTSYSLTISNMEPADAASYFCHQWSSYPYTFGGGTKLEIK			0.27 nM	0.27 nM		
chimeric antibody 022c (antibody, V domains shown) VH: QIQLVQSGPELKKPGETVKISCKASGYTFTDYAMHWVKQAPGKGLKWMGWKNTETGESTYAEDFKGRFAFFLETSASTAYLQINNVKNEDTATYFCARGGYGSNYVMDYWGQGTSVIVSS VL: DIQMTQSSSSFSVSLGDRVTITCKASEDIYNRLAWYQQKPGNAPRLLISGATSLETGVPSRFSGSGSGKDYTLSITSLQTEDVATYYCQQYWNSPRTFGGGTKLEIK			18.7 nM	18.7 nM		
reference antibody KWAR23 (antibody, V domains shown) VH: EVQLQQSGAELVKPGASVKLSCTASGFNIKDYYIHWVQQRTEQGLEWIGRIDPEDGETKYAPKFQDKATITADTSSNTAYLHLSSLTSEDTAVYYCARWGAYWGQGTLVTVSS VL: QIVLTQSPAIMSASPGEKVTLTCSASSSVSSSYLYWYQQKPGSSPKLWIYSTSNLASGVPARFSGSGSGTSYSLTISSMEAEDAASYFCHQWSSYPRTFGAGTKLELK	5%	0.6 nM	0.05 nM	0.05 nM	1 nM	0.15 nM
reference antibody HEFLB (antibody, V domains shown) VH: EVQLVQSGAEVKKPGESLRISCKASGYSFTSYWVHWVRQMPGKGLEWMGNIDPSDSDTHYSPSFQGHVTLSVDKSISTAYLQLSSLKASDTAMYYCVRGGTGTLAYFAYWGQGTLVTVSS VL: DVVMTQSPLSLPVTLGQPASISCRSSQSLVHSYGNTYLYWFQQRPGQSPRLLIYRVSNRFSGVPDRFSGSGSGTDFTLKISRVEAEDVGVYYCFQGTHVPYTFGGGTKVEIK	4%	0.5 nM				
reference antibody 29-AM4-5 (antibody, V domains shown) VH: EVQLVESGGGLVQPGGSLRLSCAASGFNISYYFIHWVRQAPGKGLEWVASVYSSFGYTYYADSVKGRFTISADTSKNTAYLQMNSLRAEDTAVYYCARFTFPGLFDGFFGAYLGSLDYWGQGTLVTVSS VL: DIQMTQSPSSLSASVGDRVTITCRASQSVSSAVAWYQQKPGKAPKLLIYSASSLYSGVPSRFSGSRSGTDFTLTISSLQPEDFATYYCQQAVNWVGALVTFGQGTKVEIK	7%	1.4 nM	0.11 nM	0.11 nM	3.4 nM	0.22 nM
Antibody 035 (hybridoma antibody) (antibody, V domains shown, mouse hybridoma antibody) VH: QIQLVQSGPELRKPGETVKISCKASGYSFTNYAMNWVKQAPGKVLKWMGFINTYTGEPTYADDFKGRFAFSLETSASTAYLQINNLKNEDTATYFCTRTRGYYDFDGGAFDYWGQGTSLTVSS VL: DIVMTQSQKFMSTSIGDRVSVTCKASQNVGTHLAWYQQKPGQSPKALIFSASYRYIGVPDRFTGSGSGTDFTLTITNVQSEDLAEYFCQQYNTYPLTFGAGTKLELK	-3%	4.9 nM				2.22 nM
Antibody 074 (hybridoma antibody) (antibody, V domains shown, mouse hybridoma antibody) VH: QVQLQQPRAELVKPGASVMLSCKASGYTFSSYWIHWVRQGPGQGLEWIGLIHPNSGNTDCSETFKNKATLTVDTSSSTAYMQLSSLASEDSAVYYCARDGASYDWFVHWGQGTLVTVSA VL: not shown	7%					
Antibody 022 (hybridoma antibody) (antibody, V domains shown, mouse hybridoma antibody) VH: QIQLVQSGPELKKPGETVKISCKASGYTFTDYAMHWVKQAPGKGLKWMGWKNTETGESTYAEDFKGRFAFFLETSASTAYLQINNVKNEDTATYFCARGGYGSNYVMDYWGQGTSVIVSS VL: DIQMTQSSSSFSVSLGDRVTITCKASEDIYNRLAWYQQKPGNAPRLLISGATSLETGVPSRFSGSGSGKDYTLSITSLQTEDVATYYCQQYWNSPRTFGGGTKLEIK	79%					0.76 nM
Antibody 050 (hybridoma antibody) (antibody, V domains shown, mouse hybridoma antibody) VH: QIQLVQSGPELKKPGETVKISCKASGYTFTHYSMHWVKQAPGKGLKWMGWINTETAEPTYVDDFKGRFAFSLEASASTAFFQINNLKNEDTATYFCARGGLRQGDYWGQGTTLTVSS VL: QIVLTQSPPIMSASPGEKVTLTCSATSSVSASYLYWFQQKPGSSPKLWIYSTSNLASGVPARFSGSGSGTSYSLTISNMEPADAASYFCHQWSSYPYTFGGGTKLEIK	83%					0.38 nM
Antibody 060 (hybridoma antibody) (antibody, V domains shown, mouse hybridoma antibody) VH: QVQLKESGPGLVAPSESLSITCTVSGFSLTNYDISWIRQSPGKGLEWLGVIWTGGDTNFNSAFMSRLSISKDKSKSQVFLKLNSLQTDDTAIYYCVRVQYFGGSYGPMDYWGQGISVTVSS VL: DIQMTQASSYLSVSLGGRVTITCEASDHINDWLAWYQQTPGNAPRLLISGATSLETGVPSRFSGSGSGKDYTLSITSLQTEDIATYYCQQYWNTPLTFGAGTRLELK	14%	> 1000 nM				
